Measurements as given in publication PMC7195491.

B1: Dpr10 (Defective proboscis extension response 10), extracellular region [Drosophila melanogaster] / DIP-α (Dpr Interacting Protein alpha), extracellular region [Drosophila melanogaster] (parent)
chain 1: MLTLWTALFCCLTGLAVCYQRQSVSNNNHNNAEAKPTHAPPSHYPHGHKWNEPYFDLTMPRNITSLVGKSAYLGCRVKHLGNKTVAWIRHRDLHILTVGTYTYTTDQRFQTSYHRDIDEWTLQIKWAQQRDAGVYECQISTQPVRSYSVNLNIVVPTATILGGPDLYVDKGSTINLTCIIKFSPEPPTHIFWYHQDKVLSEETSGGRLKFKTIKSEETKSILLIYDADLLHSGKYSCYPSNTEIASIRVHVLQGERPEAMQTNAAPAAVALACWSCHFGQATQAVRVISTMVAALVLLEACSSLLLQSGGGGGCPGGGSPAGGMPTRVREIREKPLTNSLLDPKIPSTTSAERVNNGSRNAR
chain 2: MPVSAKRLLRNFQFTSCDRNGKMLIHLLLIVSLLEAIGAFQPEFVESISNVSVAVGRDATFTCHVRHLGGYRVGWLKADTKAIQAIHENVITHNPRVTVSHLDQNTWNLHIKAVSEEDRGGYMCQLNTDPMKSQIGFLDVVIPPDFISEDTSSDVIVPEGSSVRLTCRARGYPEPIVTWRREDGNEIVLKDNVGTKTLAPSFRGEVLKLSKISRNEMGSYLCIASNGVPPSVSKRISLSIHFHPVIQVPNQLVGAPLGTDVQIECHVEASPKSINYWIKDTGEMIVTSGKYHVQESSQSMYETKMSMIVRKFQKDDVGSYRCIAKNSLGEVDSSIRLYEIPGPNRNKNPLNGGGKGGGAGGSLDADANDILKQKQQVKVTYQPEDEELQYGSVEDFEAEGGEGGGLTPLSPHVYYTSGNKPATHKPGNSGGNQHLHQQHHHHHHHNNNNNNQQHSGGPGGGPTGGDAGSLGGEMGGITRKPPPYYGGNTEVRGPIDNNEMSSGSGDSRLCRGHHLPILLLPFARLILVRSWHCRHTFLMGLSQACLPGLLLSLL

Variants of: B1
Assay: SPR
Conditions: with DIP-α (Dpr Interacting Protein alpha), 25 °C, 10 mM Tris-HCl, pH 7.2, 150 mM NaCl, 1 mM EDTA, 1 mg mL−1 BSA, 0.01% (v/v) Tween-20, analyte 81 to 0.012 μM, three-fold dilution series, parent: 0

| Variant | ddG |
| --- | --- |
| chain 1 MLTLWTALFCCLTGLAVCYQRQSVSNNNHNNAEAKPTHAPPSHYPHGHKWNEPYFDLTMPRNITSLVGKSAYLGCRVKHLGNKTVAWIRHRDGHILTVGTYTYTTDQRFQTSYHRDIDEWTLQIKWAQQRDAGVYECQISTEPKRSYSVNLNIVVPTATILGGPDLYVDKGSTINLTCIIKFSPEPPTHIFWYHQDKVLSEETSGGRLKFKTIKSEETKSILLIYDADLLHSGKYSCYPSNTEIASIRVHVLQGERPEAMQTNAAPAAVALACWSCHFGQATQAVRVISTMVAALVLLEACSSLLLQSGGGGGCPGGGSPAGGMPTRVREIREKPLTNSLLDPKIPSTTSAERVNNGSRNAR [chain 1 L93G Q142E V144K] | > 3.5 kcal/mol |
